Measured values taken from patent publication US20250352661A1 (MYTHIC THERAPEUTICS, published 2025).

Tests used:
[1] = target: T1, LRRC15 on the surface of LRRC15+ cells (SAOS-2, U87MG) (UniProt Q8TF66 22-581, limits assumed); experiment: cell-based or functional assay
T1 sequence (looked up): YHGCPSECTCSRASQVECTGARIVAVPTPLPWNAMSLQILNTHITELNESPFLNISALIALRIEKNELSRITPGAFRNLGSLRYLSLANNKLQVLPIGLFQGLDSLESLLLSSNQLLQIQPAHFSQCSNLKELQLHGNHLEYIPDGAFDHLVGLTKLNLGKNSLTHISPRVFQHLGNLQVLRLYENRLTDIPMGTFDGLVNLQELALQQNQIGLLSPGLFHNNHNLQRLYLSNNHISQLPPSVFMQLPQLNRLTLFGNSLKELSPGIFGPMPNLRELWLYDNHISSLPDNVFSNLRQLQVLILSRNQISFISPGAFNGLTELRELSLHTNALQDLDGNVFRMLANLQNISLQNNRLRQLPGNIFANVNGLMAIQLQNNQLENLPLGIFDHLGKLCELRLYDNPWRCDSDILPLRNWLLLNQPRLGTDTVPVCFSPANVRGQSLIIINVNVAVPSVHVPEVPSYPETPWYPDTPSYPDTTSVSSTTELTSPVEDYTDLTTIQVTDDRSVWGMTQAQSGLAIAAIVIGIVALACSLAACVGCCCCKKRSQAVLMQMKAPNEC

[2] = target: T1, LRRC15 on the surface of LRRC15+ cells …; experiment: cell-based or functional assay; remark: listed apart in the source

B1: MYT8417 (antibody, V domains shown)
VH: EVQLVESGGGLVQPGGSLRLSCTASGLDFRRTNYICWVRQAPGKGLEWVGCIYIADVVHYYASWAKGRFTFSRDTSKNTVYLQMNSLRAEDTAVYYCARGADGGFVYGMDLWGQGTLVTVSS
VL: EIVMTQSPSTLSASVGDRVIITCQASQSIGNYLSWYQQKPGKAPKRLIYSASTLPSGVPSRFSGSGSGAEFTLTISSLQPDDFATYYCQNNYWLAHYGHPFGQGTKLTVL
[1]
  Internalization in SAOS-2 cells (10 nM, 24 hours), FOB = fold over background (IgG control): 2.68 fold over background (IgG control)
  Internalization in SAOS-2 cells (10 nM, 24 hours), FOS = fold over samrotamab: 1.04 fold over samrotamab
[2]
  Internalization in U87MG cells (10 nM, 24 hours), FOB = fold over background (IgG control): 2.76 fold over background (IgG control)
  Internalization in U87MG cells (10 nM, 24 hours), FOS = fold over samrotamab: 2.06 fold over samrotamab

B2: MYT8483 (antibody, IgG1, V domains shown)
VH: EVQLVESGGGLVQPGGSLRLSCTASGFSFSGSYWICWVRQAPGKGLEWVGCINGGSLDITYYASWAKGRFTISRDTSKNTVYLQKTSLRAEDTAVYYCASDTSYTAYGNFYFNLWGQGTLVTVSS
VL: EIVMTQSPSPLSASVGDRVIITCQSSQSVLNNNWLAWYQQKPGKAPKLLIYDASSLASGVPSRFSGSGSGAEFTLTISSLQPDDFATYYCQGEFSCGSADCNAFGQGTKLTVL
[1]
  Internalization in SAOS-2 cells (10 nM, 24 hours), FOB = fold over background (IgG control): 2.62 fold over background (IgG control)
  Internalization in SAOS-2 cells (10 nM, 24 hours), FOS = fold over samrotamab: 1 fold over samrotamab
[2]
  Internalization in U87MG cells (10 nM, 24 hours), FOB = fold over background (IgG control): 2.25 fold over background (IgG control)
  Internalization in U87MG cells (10 nM, 24 hours), FOS = fold over samrotamab: 1.45 fold over samrotamab

B3: MYT9507 (antibody, V domains shown)
VH: EVQLVESGGGLVQPGGSLRLSCTASGFSFSSSHWICWVRQAPGKGLEWVGCIYAGSIGSTYYASWAKGRFTISRDTSKNTVYLQMNSLRAEDTAVYYCARAPNDIYNYYFNLWGQGTLVTVSS
VL: EIVMTQSPSTLSASVGDRVIITCDASENIYNYLAWYQQKPGKAPKLLIYYASTLASGVPSRFSGSGSGAEFTLTISSLQPDDFATYYCQSGYVSKSSTFGQGTKLTVL
[1]
  Internalization in SAOS-2 cells (10 nM, 24 hours), FOB = fold over background (IgG control): 3.16 fold over background (IgG control)
  Internalization in SAOS-2 cells (10 nM, 24 hours), FOS = fold over samrotamab: 1.33 fold over samrotamab
[2]
  Internalization in U87MG cells (10 nM, 24 hours), FOB = fold over background (IgG control): 3.58 fold over background (IgG control)
  Internalization in U87MG cells (10 nM, 24 hours), FOS = fold over samrotamab: 3.01 fold over samrotamab

B4: MYT9523 (antibody, V domains shown)
VH: EVQLVESGGGLVQPGGSLRLSCTASGFSFSSSHWICWVRQAPGKGLEWVGCIYAGSIGSTYYASWAKGRFTISRDTSKNTVYLQMNSLRAEDTAVYYCARAPNDIYNYYFNLWGQGTLVTVSS
VL: EIVMTQSPSTLSASVGDRVIITCQASENIYNYLAWYQQKPGKAPKLLIYYASTLDSGVPSRFSGSGSGAEFTLTISSLQPDDFATYYCQSGYVSKSSTFGQGTKLTVL
[1]
  Internalization in SAOS-2 cells (10 nM, 24 hours), FOB = fold over background (IgG control): 3.23 fold over background (IgG control)
  Internalization in SAOS-2 cells (10 nM, 24 hours), FOS = fold over samrotamab: 1.37 fold over samrotamab
[2]
  Internalization in U87MG cells (10 nM, 24 hours), FOB = fold over background (IgG control): 3.05 fold over background (IgG control)
  Internalization in U87MG cells (10 nM, 24 hours), FOS = fold over samrotamab: 2.4 fold over samrotamab

B5: MYT2737 (antibody, V domains shown)
VH: EVQLVQSGAEVKKPGASVKVSCKASGYKFSSYWIEWVKQAPGQGLEWIGEILPGSDTTNYNEKFKDRATFTSDTSINTAYMELSRLRSDDTAVYYCARDRGNYRAWFGYWGQGTLVTVSS
VL: DIQMTQSPSSLSASVGDRVTITCRASQDISNYLNWYQQKPGGAVKFLIYHTSRLHSGVPSRFSGSGSGTDYTLTISSLQPEDFATYFCQQGEALPWTFGGGTKVEIK
[1]
  Internalization in SAOS-2 cells (10 nM, 24 hours), FOB = fold over background (IgG control): 2.01 fold over background (IgG control)
  Internalization in SAOS-2 cells (10 nM, 24 hours), FOS = fold over samrotamab: 0.62 fold over samrotamab
[2]
  Internalization in U87MG cells (10 nM, 24 hours), FOB = fold over background (IgG control): 2.07 fold over background (IgG control)
  Internalization in U87MG cells (10 nM, 24 hours), FOS = fold over samrotamab: 1.24 fold over samrotamab
